Where no end group is shown, it is not given here.
Columns and labels:
[1] = molecular target: T1, GST-PDZI′ (Grasp55 residues 1 to 107) (Mus musculus, UniProt Q99JX3); assay: HTRF measurement of interaction of biotinylated C-terminal peptides with GST-PDZI′; type: binding, murine; settings: for which Grasp55 construct's interaction with JAM-C is inhibited: NINDS library screening, PDZI′ and PDZI′+II′ recombinant GST proteins; for interaction of biotinylated peptide with PDZI′ GST construct: peptide 1.9*10^−7M
T1 construct: GST fusion proteins encompassing residues 1 to 107; made in house; host or cells: bacteria Rosetta
Description: (§1) To refine and extend the results obtained by yeast two hybrid, an Homogenous Time Resolved Fluorescence (HTRF) assay have been set-up to measure interactions of various peptides with recombinant GST proteins corresponding to different regions of Grasp55.
(§2) Briefly, the technique consisted in incubating 18 h at 4° C. the biotinylated-Cterminal peptides (SEQ ID NO: 26 to 34) at the concentration of 1.9*10^−7M with the GST-fusion protein, the terbium-coupled anti-GST antibody (8*10^−10M each) and the d2-coupled streptavidin (4*10^−8M) (both from Cisbio), in 0.1 mL of Hepes 0.05M, NaCl 0.15M BSA 0.1% pH 7.2. In some experiments, competing peptide or chemicals were added to the incubation mix at the indicated concentration. After incubation, microtiter plates (Costar #3693) were red using PolarScan Omega (BMG Labtech) equipped for HTRF measurements. Upon excitation at 320 nm, a 620 nm fluorescence emission is produced by the donor terbium that in turn excites a 665 nm light emission by a Streptavidin-d2 (acceptor) bound to the Biotinylated interacting Peptide if the latter is interacting with the donor. The […] R ratio is obtained and a Delta F is computed as: [(Rsample−RNSB)/RNSB]*100 where RNSB is the Non Specific Background signal determined in incubates where the GST-fusion protein was omitted.
(§3) Having shown that HTRF measurement of interaction is a reliable technology to identify inhibitors of interaction. A screen of a chemical compound library provided by MRCt has been initiated. The screening consisted in the same HTRF technique used in Example 7 except that compounds from the library were added in the incubation mix at the final concentration of 6.6×10^−5M. […] Since such a result could be either due to a specific inhibition of the JAM-C peptide interaction to the recombinant Grasp55 PDZ domains or to a non-specific inhibition of the FRET signal between donor and acceptor in HTRF technology, the twenty selected compounds have been further tested. Indeed, compounds could potentially interfere with the binding of the anti-GST antibody terbium-labeled to the GST of the fusion protein, the binding of Streptavidin-d2 to the biotinylated peptide or promote strong interference at 320, […] or 665 nm. Thus, the putative hits obtained were screened for non-specific inhibition. To this end, the GST-PDZI′+II′ recombinant protein was biotinylated using Sulfo-NHS Biotin according to manufacturer instructions (Pierce). This allows designing an HTRF assay in which the d2-coupled streptavidin (acceptor) and the terbium-coupled anti-GST antibody are directly bound to recombinant GST-PDZI′+II′ protein and produce DeltaF signal independently of the biotinylated peptide. The twenty selected compounds were thus tested in this assay to eliminate those giving false inhibition of the HTRF signals while inhibitors of Biotinylated peptide interaction with GST-PDZI′+II′ should not interfere in this assay.

[2] = molecular target: T2, GST-PDZI′+II′ (Grasp55 residues 1 to 208) (Mus musculus, UniProt Q99JX3); assay: HTRF measurement of interaction of biotinylated C-terminal peptides with GST-PDZI′+II′; type: binding, murine; settings: for interaction of biotinylated peptide with PDZI′+II′ GST construct: peptide 1.9*10^−7M
T2 construct: and 1 to 208 corresponding respectively to the PDZI′, PDZII′ and PDZI′+II′ constructs; made in house; host or cells: bacteria Rosetta
Description: as §1, §2, §3

JAM-C = molecular target: T3, JAM-C (Mus musculus, UniProt Q9D8B7); assay: yeast two hybrid interaction of Grasp55 constructs with JAM-C; type: binding, murine; parameters: key: Symbols “+++” and “−” indicates the growth of yeast on selective media as shown in the FIGURE 13; Symbols “+++” and “−” indicates the growth of yeast on selective media as shown in the FIGURE 13
T3 construct: amino-acids 263 to 310 of murine JAM-C; expressed in transfected cells; host or cells: AH109 yeast strain
T3 sequence (Q9D8B7 263-310): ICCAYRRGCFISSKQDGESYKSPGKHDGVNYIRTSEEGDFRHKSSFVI
Excerpt: (§4) The different GRASP55 constructs were cloned into pGBT9 GW vector (Ga14 DNA-binding domain fusion vector, Trp) as well in the pACT2 GW vector (Gal4 DNA-activation domain fusion vector, Leu) using the Gateway technology (Invitrogen). Plasmids were then co-transformed in AH109 yeast strain (/MATa, trp1-901, leu2-3, 112, ura3-52, his3-200, gal4/A, /gal80/A, /LYS2::GAL1//UAS//-GAL1//TATA//-HIS3, GAL2//UAS//-GAL2//TATA//-ADE2, URA3::MEL1//UAS//-MEL1//TATA//-lacZ, MEL1/) in accordance with the previously described transformation protocol (Chien et al. 1991. Proc Natl Acad Sci USA. 88:9578-82). Following co-transformation with the two vectors containing the different constructs (as well as the empty vector to test self activation), yeasts were plated onto Synthetic Complete (SC) medium minus Leucine (−L), minus Tryptophan (−W), minus Histidine (−H) and incubated at 30° C. for 4 to 5 days. All yeast media were prepared as previously described.
(§5) In examples 2, the inventors have previously shown that interaction between Grasp55 and C-terminal part of JAM-C requires the peptidic sequence between residues 1 to 160 of Grasp55 (PDZI+II) but cannot occur with residues 1 to 79 of Grasp55 (PDZI) by yeast two hybrid and ELISA assay (FIGS. 2 and 8). In the present example, the interaction sites between JAMs or metalloproteinases involved in JAM regulation and Grasp55 have been mapped using new constructs. To this end, yeast two-hybrid and GST fusion proteins encompassing residues 1 to 107, 108 to 208, and 1 to 208 corresponding respectively to the PDZI′, PDZII′ and PDZI′+II′ constructs have been generated. The former PDZII construct (residues 80 to 160) have also been used to test interaction with the C-terminal sequences of ADAM 10 (of sequence SEQ ID NO: 41) and ADAM 17 (of sequence SEQ ID NO: 42) known to regulate JAM-A and JAM-C release (Table 1). GST fusion proteins were produced and yeast two-hybrid assay was performed as previously described in example 1.

JAM-C ΔPDZbm = molecular target: T4, JAM-C ΔPDZbm (Mus musculus, UniProt Q9D8B7); assay: yeast two hybrid interaction of Grasp55 constructs with JAM-C ΔPDZbm; type: binding, murine; parameters: key: Symbols “+++” and “−” indicates the growth of yeast on selective media as shown in the FIGURE 13; Symbols “+++” and “−” indicates the growth of yeast on selective media as shown in the FIGURE 13
T4 construct: amino-acids 263 to 310 of murine JAM-C; expressed in transfected cells; host or cells: AH109 yeast strain
T4 sequence (Q9D8B7 263-307 limits assumed): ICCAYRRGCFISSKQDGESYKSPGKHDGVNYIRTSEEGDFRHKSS
Excerpt: as §4, §5

ADAM10 = molecular target: T5, ADAM10 (Mus musculus, UniProt O35598, DEL741-741); assay: yeast two hybrid interaction of Grasp55 constructs with ADAM10 C-terminal sequence; type: binding, murine; parameters: key: Symbols “+++” and “−” indicates the growth of yeast on selective media as shown in the FIGURE 13; Symbols “+++” and “−” indicates the growth of yeast on selective media as shown in the FIGURE 13
T5 construct: expressed in transfected cells; host or cells: AH109 yeast strain
T5 sequence (O35598 with tags, fused parts or gaps DEL741-741): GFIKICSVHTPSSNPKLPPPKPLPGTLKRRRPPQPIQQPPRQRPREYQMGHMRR
Excerpt: as §4, §5

ADAM17 = molecular target: T6, ADAM17 (Mus musculus, UniProt Q9Z0F8, A775V/P752S); assay: yeast two hybrid interaction of Grasp55 constructs with ADAM17 C-terminal sequence; type: binding, murine; parameters: key: Symbols “+++” and “−” indicates the growth of yeast on selective media as shown in the FIGURE 13; Symbols “+++” and “−” indicates the growth of yeast on selective media as shown in the FIGURE 13
T6 construct: expressed in transfected cells; host or cells: AH109 yeast strain
Excerpt: as §4, §5

B16F10 cells = assay: wound healing assay (cell migration); type: cell-based, mouse; settings: siRNA, 48 h post-transfection, measured over 6 h; sicontrol 167±13; Mean+/−SEM
Description: Transient transfections were performed on a 50% confluent monolayer of B16F10 cells with either 10 nM of siRNA or 5 μg of shRNA against luciferase used as a control or shRNA against GRASP55 in Lipofectamine RNAimax (Invitrogen). Transfection efficiency was monitored at 24 h by qRT-PCR and Western blots for the expression of GRASP55 transcript or protein. For selection of stable transfectants, cells were grown in DMEM containing 10 μg/ml of puromycine (Sigma Aldrich) starting 48 h after transfection.
For in vitro wound healing assays, 80% confluent monolayers of wild-type B16F10 cells or B16F10 cells transfected with various siRNA or shRNA were grown in both chambers of Ibidi culture inserts with defined cell free gaps. Cells were subjected to serum starvation for 24 h, before wounds were created by removing Ibidi culture inserts that define cell gaps of 400 μm. The wound healing was carried out for 8 h in complete DMEM medium and was recorded at various times after wounding. Analysis of wound closure was performed using Metamorph software and is expressed as mean speed per minute.

[3] = competition with unlabelled JAM-C peptide

T6 sequence (Q9Z0F8 693-827 P752S/A775V): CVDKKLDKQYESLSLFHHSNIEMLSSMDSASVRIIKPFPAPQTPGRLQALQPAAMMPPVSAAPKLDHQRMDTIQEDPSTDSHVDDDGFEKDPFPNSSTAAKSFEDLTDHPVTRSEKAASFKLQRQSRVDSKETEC

N.N.O=C([O-])C1(C(=O)[O-])CCC1.[Pt+2] [Carboplatin, cis-Diammine(1,1-cyclobutanedicarboxylato)platinum(II)]
which Grasp55 construct's interaction with JAM-C is inhibited [1]: preferentially inhibit the interaction of JAM-C with PDZI′

CCN(CC)C(=S)SSC(=S)N(CC)CC [Disulfiram, 1,1′,1″,1′″-[disulfanediylbis(carbonothioylnitrilo)]tetraethane]
which Grasp55 construct's interaction with JAM-C is inhibited [1]: only with PDZI′+II′

O=c1oc2c(O)c(O)cc3c(=O)oc4c(O)c(O)cc1c4c23 [Ellagic acid, 2,3,7,8-Tetrahydroxy-chromeno[5,4,3-cde]chromene-5,10-dione]
which Grasp55 construct's interaction with JAM-C is inhibited [1]: inhibit interaction with PDZI′ and PDZI′+II′

JAM-A: biotinylated C-terminal peptide of JAM-A (SQPSTRSEGEFKQTSSFLV; also: biotinylated)
interaction of biotinylated peptide with PDZI′ GST construct [1]: confirmed | AppAff for GST-PDZI′+II′ compared with GST-PDZI′ [2, 3]: higher AppAff | apparent affinity (AppAff) compared with JAM-C ([2]; competition with unlabelled JAM-C peptide, GST-PDZI′ and GST-PDZI′+II′): AppAff of JAM-C is equal to AppAff of JAM-A | interaction of biotinylated peptide with PDZI′+II′ GST construct [2]: confirmed

JAM-C: biotinylated C-terminal peptide of JAM-C (NYIRTSEEGDFRHKSSFVI; also: biotin)
interaction of biotinylated peptide with PDZI′ GST construct [1]: confirmed | AppAff for GST-PDZI′+II′ compared with GST-PDZI′ [2, 3]: higher AppAff | interaction of biotinylated peptide with PDZI′+II′ GST construct [2]: confirmed

PDZII′: Grasp55 construct, residues 108 to 208
interaction with JAM-C (yeast growth on selective media) (JAM-C): − | interaction with JAM-C ΔPDZbm (yeast growth on selective media) (JAM-C ΔPDZbm): − | interaction with ADAM10 (yeast growth on selective media) (ADAM10): − | interaction with ADAM17 (yeast growth on selective media) (ADAM17): −

PDZI′ + II′: Grasp55 construct, residues 1 to 208
interaction with JAM-C (yeast growth on selective media) (JAM-C): +++ | interaction with JAM-C ΔPDZbm (yeast growth on selective media) (JAM-C ΔPDZbm): − | interaction with ADAM10 (yeast growth on selective media) (ADAM10): − | interaction with ADAM17 (yeast growth on selective media) (ADAM17): −

PDZI′: Grasp55 construct, residues 1 to 107
interaction with JAM-C (yeast growth on selective media) (JAM-C): +++ | interaction with JAM-C ΔPDZbm (yeast growth on selective media) (JAM-C ΔPDZbm): − | interaction with ADAM10 (yeast growth on selective media) (ADAM10): − | interaction with ADAM17 (yeast growth on selective media) (ADAM17): −

siGRASP55#01: siRNA targeting Grasp55, SEQ ID NO: 6, 5′CGUCAUGAAUGAGUCUGAATT 3′, from Ambion (chemistry not given here)
mean velocity (B16F10 cells): 82 ± 4 nm/min

siGRASP55#1: siRNA targeting Grasp55, SEQ ID NO: 7, 5′AAGUGAUCAUCACACCAAATT 3′, from Ambion (chemistry not given here)
mean velocity (B16F10 cells): 95 ± 8 nm/min

ΔPDZbm: control biotynilated JAM-C peptide lacking the three terminal amino-acids (SEQ ID NO: 31) (NYIRTSEEGDFRHKSS; also: biotinylated)
interaction of biotinylated peptide with PDZI′+II′ GST construct [2]: no signal over the background
